Key:
[1] = target: mutant Huntingtin exon 1 fragment with Q71, unlabelled (Q71); assay: FRET or BRET
[2] = target: the molecule itself; assay: FRET or BRET

Chain of mutant Huntingtin exon 1 fragment with Q71, unlabelled (Q71) (P42858 whole entry, change not shown, the tested form may be a part): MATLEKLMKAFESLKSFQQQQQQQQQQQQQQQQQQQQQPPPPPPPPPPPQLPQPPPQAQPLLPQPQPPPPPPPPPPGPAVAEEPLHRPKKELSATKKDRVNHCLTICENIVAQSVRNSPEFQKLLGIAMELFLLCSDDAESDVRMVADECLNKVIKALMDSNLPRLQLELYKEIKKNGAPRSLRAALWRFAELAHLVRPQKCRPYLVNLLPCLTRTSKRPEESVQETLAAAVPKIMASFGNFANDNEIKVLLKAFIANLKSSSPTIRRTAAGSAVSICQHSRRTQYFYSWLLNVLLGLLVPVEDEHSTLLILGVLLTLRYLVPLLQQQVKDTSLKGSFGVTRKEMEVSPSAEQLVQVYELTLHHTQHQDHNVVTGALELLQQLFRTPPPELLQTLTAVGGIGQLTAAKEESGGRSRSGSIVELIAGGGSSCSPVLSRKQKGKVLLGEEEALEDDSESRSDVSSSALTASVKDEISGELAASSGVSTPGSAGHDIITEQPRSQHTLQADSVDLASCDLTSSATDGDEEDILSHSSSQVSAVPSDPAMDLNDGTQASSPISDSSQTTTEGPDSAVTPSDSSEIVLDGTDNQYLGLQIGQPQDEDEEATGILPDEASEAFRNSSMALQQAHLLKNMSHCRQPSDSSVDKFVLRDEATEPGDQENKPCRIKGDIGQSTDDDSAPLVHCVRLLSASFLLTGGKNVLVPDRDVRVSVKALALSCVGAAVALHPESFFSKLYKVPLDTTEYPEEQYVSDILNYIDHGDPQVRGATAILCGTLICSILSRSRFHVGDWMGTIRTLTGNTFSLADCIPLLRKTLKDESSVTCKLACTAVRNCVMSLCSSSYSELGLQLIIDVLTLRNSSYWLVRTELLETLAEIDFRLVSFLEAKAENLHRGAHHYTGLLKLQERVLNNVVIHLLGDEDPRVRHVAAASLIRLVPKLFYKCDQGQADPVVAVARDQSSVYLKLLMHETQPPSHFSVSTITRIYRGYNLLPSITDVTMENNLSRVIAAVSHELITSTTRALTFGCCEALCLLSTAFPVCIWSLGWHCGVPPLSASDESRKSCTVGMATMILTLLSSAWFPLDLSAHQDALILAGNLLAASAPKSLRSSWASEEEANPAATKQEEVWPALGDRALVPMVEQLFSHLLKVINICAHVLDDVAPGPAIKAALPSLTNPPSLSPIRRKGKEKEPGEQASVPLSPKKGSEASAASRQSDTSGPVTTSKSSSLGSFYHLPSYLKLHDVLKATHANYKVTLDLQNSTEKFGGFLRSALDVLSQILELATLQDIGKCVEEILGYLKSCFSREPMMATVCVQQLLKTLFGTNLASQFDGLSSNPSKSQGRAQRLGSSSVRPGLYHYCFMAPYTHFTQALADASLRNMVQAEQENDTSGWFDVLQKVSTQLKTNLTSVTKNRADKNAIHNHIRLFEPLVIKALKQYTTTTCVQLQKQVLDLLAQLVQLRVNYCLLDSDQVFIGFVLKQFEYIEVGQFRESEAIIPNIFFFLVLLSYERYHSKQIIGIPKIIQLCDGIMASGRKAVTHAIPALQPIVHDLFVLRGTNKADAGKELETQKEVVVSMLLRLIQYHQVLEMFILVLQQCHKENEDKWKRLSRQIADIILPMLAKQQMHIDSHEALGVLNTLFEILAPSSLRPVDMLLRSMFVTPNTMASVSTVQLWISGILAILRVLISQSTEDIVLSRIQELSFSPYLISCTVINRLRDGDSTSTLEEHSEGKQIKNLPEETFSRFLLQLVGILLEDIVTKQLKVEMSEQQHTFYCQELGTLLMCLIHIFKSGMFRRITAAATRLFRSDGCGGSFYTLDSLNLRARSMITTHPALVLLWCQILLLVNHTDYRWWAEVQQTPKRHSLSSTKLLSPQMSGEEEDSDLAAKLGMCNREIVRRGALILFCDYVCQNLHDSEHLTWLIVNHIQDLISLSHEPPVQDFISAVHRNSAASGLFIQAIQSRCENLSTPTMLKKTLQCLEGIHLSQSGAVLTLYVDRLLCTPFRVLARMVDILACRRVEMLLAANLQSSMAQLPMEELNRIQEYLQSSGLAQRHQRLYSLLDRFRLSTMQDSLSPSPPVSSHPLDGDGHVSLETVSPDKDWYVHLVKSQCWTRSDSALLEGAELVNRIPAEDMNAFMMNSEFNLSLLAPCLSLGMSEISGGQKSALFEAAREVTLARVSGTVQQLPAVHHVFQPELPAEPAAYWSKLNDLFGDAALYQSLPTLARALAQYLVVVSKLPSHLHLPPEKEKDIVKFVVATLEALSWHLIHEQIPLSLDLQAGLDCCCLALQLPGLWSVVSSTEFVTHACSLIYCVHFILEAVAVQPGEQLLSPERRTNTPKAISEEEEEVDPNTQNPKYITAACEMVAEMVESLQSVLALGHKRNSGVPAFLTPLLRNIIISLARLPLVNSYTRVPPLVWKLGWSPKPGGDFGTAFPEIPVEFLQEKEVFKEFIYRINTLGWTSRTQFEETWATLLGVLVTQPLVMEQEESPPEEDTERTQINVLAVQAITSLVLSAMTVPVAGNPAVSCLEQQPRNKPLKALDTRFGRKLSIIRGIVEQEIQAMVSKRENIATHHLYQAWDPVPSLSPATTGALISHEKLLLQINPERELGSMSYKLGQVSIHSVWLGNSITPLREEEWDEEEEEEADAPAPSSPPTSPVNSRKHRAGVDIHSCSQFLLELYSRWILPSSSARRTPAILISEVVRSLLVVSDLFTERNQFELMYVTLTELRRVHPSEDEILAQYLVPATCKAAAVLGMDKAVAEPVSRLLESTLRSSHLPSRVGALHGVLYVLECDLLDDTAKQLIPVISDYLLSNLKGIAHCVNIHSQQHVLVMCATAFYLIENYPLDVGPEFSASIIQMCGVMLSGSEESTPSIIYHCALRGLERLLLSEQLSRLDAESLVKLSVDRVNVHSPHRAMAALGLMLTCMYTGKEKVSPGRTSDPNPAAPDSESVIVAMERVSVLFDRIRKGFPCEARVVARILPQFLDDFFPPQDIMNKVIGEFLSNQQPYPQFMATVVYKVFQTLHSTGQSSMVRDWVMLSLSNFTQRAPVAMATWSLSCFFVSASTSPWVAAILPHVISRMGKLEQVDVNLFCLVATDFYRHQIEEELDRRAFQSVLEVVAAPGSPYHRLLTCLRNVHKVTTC

| Molecule | FRET/donor ratio in aggregates with Q71 [1] | FRET/donor ratio in foci [2] |
| --- | --- | --- |
| DNAJB6b fused to mVenus-mCherry at its N-terminus (VC-DNAJB6) (from UniProt O75190-2 1-241) (natural protein) | 0.6 | – |
| FUS R521C fused to mVenus-mCherry at its N-terminus (VC-FUSR521C) (natural protein) MASNDYTQQATQSYGAYPTQPGQGYSQQSSQPYGQQSYSGYSQSTDTSGYGQSSYSSYGQSQNTGYGTQSTPQGYGSTGGYGSSQSSQSSYGQQSSYPGYGQQPAPSSTSGSYGSSSQSSSYGQPQSGSYSQQPSYGGQQQSYGQQQSYNPPQGYGQQNQYNSSSGGGGGGGGGGNYGQDQSSMSSGGGSGGGYGNQDQSGGGGSGGYGQQDRGGRGRGGSGGGGGGGGGGYNRSSGGYEPRGRGGGRGGRGGMGGSDRGGFNKFGGPRDQGSRHDSEQDNSDNNTIFVQGLGENVTIESVADYFKQIGIIKTNKKTGQPMINLYTDRETGKLKGEATVSFDDPPSAKAAIDWFDGKEFSGNPIKVSFATRRADFNRGGGNGRGGRGRGGPMGRGGYGGGGSGGGGRGGFPSGGGGGGGQQRAGDWKCPNPTCENMNFSWRNECNQCKAPKPDGPGGGPGGSHMGGNYGDDRRGGRGGYDRGGYRGRGGDRGGFRGGRGGGDRGGFGPGKMDSRGEHRQDCRERPY | – | ~0.66 |

— publication doi:10.1101/2021.02.25.432866 (bioRxiv, 2021)
